The values that follow come from paper PMC4670825.

The target of one data set is NF-κB RelA (p65) (UniProt Q04206 1-551). In words: fluorescence anisotropy. A general note: In fluorescence polarisation assays a small probe gives low polarisation when free and higher when bound to something large.
In another data set the target is FOXO3 (UniProt O43524 1-673). In words: fluorescence anisotropy.
Chain of FOXO3 (O43524 whole entry): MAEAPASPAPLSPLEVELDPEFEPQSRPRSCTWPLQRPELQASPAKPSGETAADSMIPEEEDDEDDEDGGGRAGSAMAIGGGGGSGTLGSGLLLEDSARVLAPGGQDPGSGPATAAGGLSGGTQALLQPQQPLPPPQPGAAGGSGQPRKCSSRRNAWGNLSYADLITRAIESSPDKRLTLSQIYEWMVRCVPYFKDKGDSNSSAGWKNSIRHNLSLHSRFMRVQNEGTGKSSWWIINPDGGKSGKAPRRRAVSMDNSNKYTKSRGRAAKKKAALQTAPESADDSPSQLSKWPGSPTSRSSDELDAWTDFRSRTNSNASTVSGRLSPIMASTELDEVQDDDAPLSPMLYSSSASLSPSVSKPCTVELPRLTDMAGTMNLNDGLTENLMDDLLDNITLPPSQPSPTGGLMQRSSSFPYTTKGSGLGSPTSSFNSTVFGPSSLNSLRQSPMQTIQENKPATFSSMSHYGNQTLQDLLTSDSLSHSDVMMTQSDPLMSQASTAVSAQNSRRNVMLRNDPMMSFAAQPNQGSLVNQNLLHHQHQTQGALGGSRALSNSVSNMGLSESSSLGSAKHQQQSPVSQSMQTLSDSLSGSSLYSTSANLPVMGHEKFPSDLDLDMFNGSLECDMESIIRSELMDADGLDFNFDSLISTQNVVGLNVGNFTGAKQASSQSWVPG

Chain of NF-κB RelA (p65) (Q04206 whole entry): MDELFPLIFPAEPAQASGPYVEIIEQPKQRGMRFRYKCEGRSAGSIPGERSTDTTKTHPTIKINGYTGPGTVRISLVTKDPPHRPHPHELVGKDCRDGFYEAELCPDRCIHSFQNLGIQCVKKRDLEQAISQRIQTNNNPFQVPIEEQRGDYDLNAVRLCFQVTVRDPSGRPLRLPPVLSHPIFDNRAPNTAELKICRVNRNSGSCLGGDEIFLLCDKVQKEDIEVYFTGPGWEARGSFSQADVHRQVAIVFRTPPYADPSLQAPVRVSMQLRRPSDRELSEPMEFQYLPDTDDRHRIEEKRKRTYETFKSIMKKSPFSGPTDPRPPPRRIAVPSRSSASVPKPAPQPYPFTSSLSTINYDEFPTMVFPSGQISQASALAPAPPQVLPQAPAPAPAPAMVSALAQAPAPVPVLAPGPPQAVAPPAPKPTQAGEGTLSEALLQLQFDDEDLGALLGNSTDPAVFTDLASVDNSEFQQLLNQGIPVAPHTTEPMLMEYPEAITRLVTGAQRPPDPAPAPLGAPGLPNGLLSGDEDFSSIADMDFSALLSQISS

B1: FOXO3 consensus duplex (dsDNA)
DNA 1: CGCATCCTATGTAAACAACTCGAGTC
DNA 2: GACTCGAGTTGTTTACATAGGATGCG
For B1, the binding result with NF-κB RelA (p65) was “no binding”; in the data set with FOXO3, “binds”.
